Target: dimeric oxygen-evolving photosystem II complex isolated from WT T. elongatus (Thermosynechococcus elongatus (endogenous in T. elongatus BP1)) (UniProt P0A444)
Test: co-purification by two-step anion-exchange chromatography, immunoblotting; PSII complexes isolated from WT T. elongatus membranes (Kern et al. 2005); semi-quantitative immunoblotting of thylakoids and PSII against recombinant protein standards

B1: CyanoQ (Tll2057) from Thermosynechococcus elongatus (natural protein)
chain: CGGPSATTPPPPTYSELQITRIQDYLRDIEKNAERFADLEVSVAKGDWQEARNIMRGPLGEMLMDMRALNRNLLAKDQPTPTALTRALTDDFLKIDQGADLDSVTVAQEGFREAEADFKAYLNSLPELS
  stoichiometry N (CyanoQ per PSII monomer): 0.4
